Assay results: publication PMC7820290 (Nature Communications, 2020)

Columns and labels:
Assay in all cases: […]; 5 mM HEPES pH 7.5, 80 mM KCl, 20 °C; […]
Conditions in all cases: both partners purified
[1] = target: T1, SARS-CoV-2 N protein residues 49–419 (SARS-CoV-2, UniProt P0DTC9 49-419)
T1 construct: also called N^49–419

[2] = target: T2, SARS-CoV-2 N protein residues 1–364 (SARS-CoV-2, UniProt P0DTC9 1-364)
T2 construct: also called N^1–364

[3] = target: T3, SARS-CoV-2 N protein residues 49–364 (SARS-CoV-2, UniProt P0DTC9 49-364)
T3 construct: also called N^49–364

Measured: binding result

B1: soluble C-terminal domain of SARS-CoV-2 membrane (M) protein (aa 104–222 of 222) fused to GFP (domain or fragment)
chain: ARTRSMWSFNPETNILLNVPLHGTILTRPLLESELVIGAVILRGHLRIAGHHLGRCDIKDLPKEITVATSRTLSYYKLGASQRVAGDSGFAAYSRYRIGNYKLNTDHSSSSDNIALLVQ
notes: also called GFP-M^104–222
binds: [1] | [2] | [3]
